Laboratory results as given in paper PMC4457421.

Molecular target: Bacteriorhodopsin from Halobium salinarum expressed in E. coli (Halobium salinarum) (UniProt P02945)
Test: crystal structure; in meso nanovolume crystallisation in monooleoyl-based lipid mesophase, protein 20 mg/ml, 1.5M Na/K-Pi pH 5.6, 22°C; space group C2, three monomers in the asymmetric unit; 1.9 Å

stoichiometry N: 3
Substance: Bacteriorhodopsin from Halobium salinarum expressed in E. coli (from UniProt P02945 14-262) (natural protein)
